Assay results reported in paper PMC9241285.

Target: recombinant human Aβ42 sodium hydroxide (NaOH) salt (human) (UniProt P05067)

Chain of recombinant human apoE4 (P02649 19-317): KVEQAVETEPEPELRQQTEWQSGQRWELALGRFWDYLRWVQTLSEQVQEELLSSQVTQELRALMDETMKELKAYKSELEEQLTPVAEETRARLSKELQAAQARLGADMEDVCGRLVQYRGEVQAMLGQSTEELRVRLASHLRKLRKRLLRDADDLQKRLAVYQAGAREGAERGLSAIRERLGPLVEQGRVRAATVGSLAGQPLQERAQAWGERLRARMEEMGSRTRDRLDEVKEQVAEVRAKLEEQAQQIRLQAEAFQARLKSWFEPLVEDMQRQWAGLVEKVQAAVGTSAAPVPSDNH

recombinant human apoE4 (from UniProt P02649 19-317) (natural protein)
> 30%: reduction of apoE4-catalyzed Aβ42 fibrillization (ThT, HTS assay) by imipramine at 0.25, 2.5 and 25 μM; no effect on Aβ42 alone | reduction of apoE4-catalyzed Aβ42 fibrillization (ThT, HTS assay) by olanzapine at 0.25, 2.5 and 25 μM; no effect on Aβ42 alone | reduction of apoE4-catalyzed Aβ42 fibrillization (ThT, HTS assay) by sulfacetamide at 0.25, 2.5 and 25 μM; no effect on Aβ42 alone
